T1: amphyphisin SH3 (AMPH_HUMAN), P49418
T1 chain: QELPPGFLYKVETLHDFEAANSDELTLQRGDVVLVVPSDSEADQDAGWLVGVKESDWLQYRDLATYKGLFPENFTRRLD


How the values were obtained:
[1] = target: T1, amphyphisin SH3 (AMPH_HUMAN), P49418; assay: SPOT array
[2] = target: endophilin SH3 (SH3G2_HUMAN), Q99962; assay: SPOT array

Row | normalised SPOT signal, Boehringer light units (BLU); mean over the file's lines of this peptide [1] | normalised SPOT signal, Boehringer light units (BLU); mean over the file's lines of this peptide [2] | Binder
1 | 1110 | 2270 | WSLKLSRPSKDYLL [Q9UL63 619-632]
2 | 44.1 | 1770 | YLGKPSRPPHLLLE [Q9H5Q4 87-101]
3 | 33 | 97.2 | YDTFPEKPPPSPGD [Q9UGQ3 12-26]
4 | 4460 | 3620 | WGLLPFRPPRPLPV [Q96DX2 170-184]
5 | 272 | 366 | WSEVLHRPWRNHPI [O43397 6-19]
6 | 48.9 | 573 | WRKIPKRPGSVHRT [P11229 442-455]
7 | 164 | 250 | YHPPIFRPMKRINL [Q9HC18 65-78]
8 | 140 | 628 | WRYDLRRPSFTRTW [Q96N50 15-28]
9 | 43.2 | 55.9 | SNKGFRRPSEKNQH [Q9Y4J6 675-688]
10 | 2390 | 1300 | WIPVLQRPSRTAAV [O94854 101-114]
11 | 7550 | 18400 | WSRSPPRPPRERFE [Q9UP58 185-199]
12 | 3180 | 508 | WTDRPERPSKPLLT [O15250 155-168]
13 | 37 | 297 | YERTLRRPVPLPHS [O94824 705-718]
14 | 51.5 | 208 | YENKPRRPYILKRD [P30990 153-166]
15 | 135 | 1270 | YHLPLRRPSPGFSW [O95428 295-308]
16 | 23.2 | 347 | YGLTFRRPRGLFIT [Q16798 148-161]
17 | 817 | 294 | SLTRIPRPGRQRRD [Q12770 808-821]
18 | 95.6 | 217 | WRRSLRRPDSRGRF [Q9H1V5 704-717]
19 | 134 | 166 | YGPNIGRPRKNVIA [Q9HB39 190-203]
20 | 145 | 293 | YHPPIFRPMKRITW [Q9GZT8 65-78]
21 | 386 | 127 | YLTVLGRPDRPRDL [O94856 414-427]

Row | normalised SPOT signal, Boehringer light units (BLU); mean over the file's lines of this peptide [1] | normalised SPOT signal, Boehringer light units (BLU); mean over the file's lines of this peptide [2] | Binder
22 | 317 | 364 | YSTGPPRPGRLFGS [Q13006 89-102]
23 | 43.3 | 34.1 | YHPNPKRPGLDREQ [Q8WXI7 2968-2981]
24 | 2220 | 1780 | YIFSLVRPARYQRV [P41440 139-152]
25 | 237 | 244 | YAMGFNRPSKIQEN [Q9UMR2 108-121]
26 | 7190 | 4250 | WPAGPRRPHRSSAS [Q9NP08 303-316]
27 | 35.9 | 110 | YGHIFRRPKGLFIS [P23368 123-136]
28 | 31 | 2400 | WVTMPRRPPPSGGL [Q9P2P9 924-937]
29 | 48.6 | 553 | YKVSPGRPPGSIKA [BAC04448 133-147]
30 | 3280 | 131 | YEEPPQKPPRFSQL [Q92625 879-893]
31 | 40 | 118 | YGLSPLRPPSVLPP [O14686 2329-2343]
32 | 190 | 452 | WISQISRPRKKGRK [Q92794 305-318]
33 | 26.3 | 326 | WLTSLKRPLVVIHE [P54198 312-325]
34 | 38.4 | 110 | WTEDPRRPLPWALS [P42898 339-352]
35 | 235 | 1230 | YLQLPPRPPGTRAS [Q9H4M7 331-345]
36 | 879 | 2680 | WLGSLRRPSLVHGY [Q96G29 26-39]
37 | 30.9 | 42.2 | YKVNLKRPSPFWAE [Q9NR62 73-86]
38 | 47.4 | 28.6 | YKVNLKRPSPFWND [Q96HE7 77-90]
39 | 1210 | 263 | YKPPLSRPLRPGPW [Q9H1B5 714-727]
40 | 4030 | 2010 | YPARPRRPASTAGS [Q9BTV6 12-25]
41 | 33 | 1380 | SPPIPRRPAEPPWP [Q9HBU2 317-330]
42 | 4890 | 1730 | SPSAPRRPRRPRRP [Q96QG0 338-351]

Reference: PMC314469, “Protein Interaction Networks by Proteome Peptide Scanning” (PLoS Biology, 2004)
